According to paper PMC4930721 (Cancer discovery, 2016):
Where no end group is shown, it is not given here. Me3 = trimethyl-lysine

Biological target: LEDGF PWWP (residues 1-120), 15N-labeled (UniProt O75475 1-120, uniformly 15N-labeled)
Assay: NMR titration

LEDGF PWWP (residues 1-120), 15N-labeled, sequence (O75475 1-120): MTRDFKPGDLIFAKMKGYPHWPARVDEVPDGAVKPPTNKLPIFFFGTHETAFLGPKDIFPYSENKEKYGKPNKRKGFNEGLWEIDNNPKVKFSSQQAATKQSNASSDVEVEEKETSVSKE

B1: histone H3K36me3 peptide (peptide)
chain: ATGGVK(Me3)KPHR
Question: B1 was tested. Which Kd did it give?
Answer: 4.4 mM
